From patent US9738911B2, “Methods of producing 7-carbon chemicals via pyruvate and succinate semialdehyde aldol condensation” (INVISTA North America S.a r.l., priority 2012, dated 2017)
One block for each molecule: values may come before it.

Tests used:
Type in all cases: biochemical
[1] = Thioesterase enzyme activity assay, pimeloyl-CoA to pimelate; details: 667 μM pimeloyl-CoA, 0.8 μM enzyme, 37° C., 20 min, pH 7.4; compared to empty vector control (FIG. 8)
Experimental: A sequence encoding an N-terminal His tag was added to the tesB gene from Escherichia coli that encodes a thioesterase (SEQ ID NO 1, see FIG. 7A), such that an N-terminal HIS tagged thioesterase could be produced. The modified tesB gene was cloned into a pET15b expression vector under control of the T7 promoter. The expression vector was transformed into a BL21[DE3] E. coli host. The resulting recombinant E. coli strain was cultivated at 37° C. in a 500 mL shake flask culture containing 50 mL Luria Broth (LB) media and antibiotic selection pressure, with shaking at 230 rpm. The culture was induced overnight at 17° C. using 0.5 mM IPTO.
The pellet from the induced shake flask culture was harvested via centrifugation. The pellet was resuspended and lysed in Y-Per™ solution (ThermoScientific, Rockford, Ill.). The cell debris was separated from the supernatant via centrifugation. […]
The enzyme activity assay was performed in triplicate in a buffer composed of 50 mM phosphate buffer (pH=7.4), 0.1 mM Ellman's reagent, and 667 μM of pimeloyl-CoA (as substrate). […] The release of Coenzyme A was monitored by absorbance at 412 nm. The absorbance associated with the substrate only control, which contained boiled enzyme, was subtracted from the active enzyme assay absorbance and compared to the empty vector control.

[2] = Carboxylate reductase activity assay, N7-acetyl-7-aminoheptanoate to N7-acetyl-7-aminoheptanal; details: 2 mM N7-acetyl-7-aminoheptanoate, 1 mM ATP, 1 mM NADPH, enhanced by sfp gene product, room temperature, 20 min; against empty vector control (FIG. 12)
Experimental: The activity of each of the N-terminal His-tagged carboxylate reductases of SEQ ID NOs: 3, 6, and 7 (see Examples 4, and FIGS. 7B, 7E, and 7F) for converting N7-acetyl-7-aminoheptanoate to N7-acetyl-7-aminoheptanal was assayed in triplicate in a buffer composed of a final concentration of 50 mM HEPES buffer (pH=7.5), 2 mM N7-acetyl-7-aminoheptanoate, 10 mM MgCl2, 1 mM ATP, and 1 mM NADPH. The assays were initiated by adding purified carboxylate reductase and phosphopantetheine transferase or the empty vector control to the assay buffer containing the N7-acetyl-7-aminoheptanoate then incubated at room temperature for 20 min. The consumption of NADPH was monitored by absorbance at 340 nm.

[3] = Carboxylate reductase activity assay, pimelate to pimelate semialdehyde; details: 2 mM pimelate, 1 mM ATP, 1 mM NADPH, enhanced by sfp gene product, room temperature, 20 min; against empty vector control (FIG. 10)
Experimental: A sequence encoding a HIS-tag was added to the genes from Segniliparus rugosus and Segniliparus rotundus that encode the carboxylate reductases of SEQ ID NOs: 4 and 7, respectively (see FIGS. 7C and 7F), such that N-terminal HIS tagged carboxylate reductases could be produced. Each of the modified genes was cloned into a pET Duet expression vector along with a sfp gene encoding a HIS-tagged phosphopantetheine transferase from Bacillus subtilis, both under the T7 promoter. Each expression vector was transformed into a BL21[DE3] E. coli host and the resulting recombinant E. coli strains were cultivated at 37° C. in a 250 mL shake flask culture containing 50 mL LB media and antibiotic selection pressure, with shaking at 230 rpm. Each culture was induced overnight at 37° C. using an auto-induction media.
The pellet from each induced shake flask culture was harvested via centrifugation. Each pellet was resuspended and lysed via sonication, and the cell debris was separated from the supernatant via centrifugation. […]
Enzyme activity assays (i.e., from pimelate to pimelate semialdehyde) were performed in triplicate in a buffer composed of a final concentration of 50 mM HEPES buffer (pH=7.5), 2 mM pimelate, 10 mM MgCl, 1 mM ATP and 1 mM NADPH. […] The consumption of NADPH was monitored by absorbance at 340 nm.

- substrate acceptance, release of Coenzyme A monitored by absorbance at 412 nm [1]: accepted pimeloyl-CoA as substrate
B1: gene product of tesB: Escherichia coli thioesterase encoded by tesB (GenBank Accession No. AAA24665.1) (protein, listed as Escherichia coli)
chain: MSQALKNLLTLLNLEKIEEGLFRGQSEDLGLRQVFGGQVVGQALYAAKETVPEERLVHSFHSYFLRPGDSKKPIIYDVETLRDGNSFSARRVAAIQNGKPIFYMTASFQAPEAGFEHQKTMPSAPAPDGLPSETQIAQSLAHLLPPVLKDKFICDRPLEVRPVEFHNPLKGHVAEPHRQVWIRANGSVPDDLRVHQYLLGYASDLNFLPVALQPHGIGFLEPGIQIATIDHSMWFHRPFNLNEWLLYSVESTSASSARGFVRGEFYTQDGVLVASTVQEGVMRNHN

B2: SEQ ID NO 6: Mycobacterium massiliense carboxylate reductase (Genbank Accession No. EIV 11143.1) (protein)
chain: MTNETNPQQEQLSRRIESLRESDPQFRAAQPDPAVAEQVLRPGLHLSEAIAALMTGYAERPALGERARELVIDQDGRTTLRLLPRFDTTTYGELWSRTTSVAAAWHHDATHPVKAGDLVATLGFTSIDYTVLDLAIMILGGVAVPLQTSAPASQWTTILAEAEPNTLAVSIELIGAAMESVRATPSIKQVVVFDYTPEVDDQREAFEAASTQLAGTGIALETLDAVIARGAALPAAPLYAPSAGDDPLALLIYTSGSTGAPKGAMHSENIVRRWWIREDVMAGTENLPMIGLNFMPMSHIMGRGTLTSTLSTGGTGYFAASSDMSTLFEDMELIRPTALALVPRVCDMVFQRFQTEVDRRLASGDTASAEAVAAEVKADIRDNLFGGRVSAVMVGSAPLSEELGEFIESCFELNLTDGYGSTEAGMVFRDGIVQRPPVIDYKLVDVPELGYFSTDKPHPRGELLLKTDGMFLGYYKRPEVTASVFDADGFYMTGDIVAELAHDNIEIIDRRNNVLKLSQGEFVAVATLEAEYANSPVVHQIYVYGSSERSYLLAVVVPTPEAVAAAKGDAAALKTTIADSLQDIAKEIQLQSYEVPRDFIIEPQPFTQGNGLLTGIAKLARPNLKAHYGPRLEQMYAEIAEQQAAELRALHGVDPDKPALETVLKAAQALLGVSSAELAADAHFTDLGGDSLSALSFSDLLRDIFAVEVPVGVIVSAANDLGGVAKFVDEQRHSGGTRPTAETVHGAGHTEIRAADLTLDKFIDEATLHAAPSLPKAAGIPHTVLLTGSNGYLGHYLALEWLERLDKTDGKLIVIVRGKNAEAAYGRLEEAFDTGDTELLAHFRSLADKHLEVLAGDIGDPNLGLDADTWQRLADTVDVIVHPAALVNHVLPYNQLFGPNVVGTAEIIKLAITTKIKPVTYLSTVAVAAYVDPTTFDEESDIRLISAVRPIDDGYANGYGNAKWAGEVLLREAHDLCGLPVAVFRSDMILAHSRYTGQLNVPDQFTRLILSLIATGIAPGSFYQAQTTGERPLAHYDGLPGDFTAEAITTLGTQVPEGSEGFVTYDCVNPHADGISLDNFVDWLIEAGYPIARIDNYTEWFTRFDTAIRGLSEKQKQHSLLPLLHAFEQPSAAENHGVVPAKRFQHAVQAAGIGPVGQDGTTDIPHLSRRLIVKYAKDLEQLGLL
modifications: Mycobacterium massiliense
- substrate acceptance, consumption of NADPH by absorbance at 340 nm [2]: accepted N7-acetyl-7-aminoheptanoate as substrate

- substrate acceptance, consumption of NADPH by absorbance at 340 nm [3]: accepted pimelate as substrate
B3: SEQ ID NO 4: Segniliparus rugosus carboxylate reductase (Genbank Accession No. EFV 11917.1) (protein, listed as Segniliparus rugosus)
chain: MGDGEERAKRFFQRIGELSATDPQFAAAAPDPAVVEAVSDPSLSFTRYLDTLMRGYAERPALAHRVGAGYETISYGELWARVGAIAAAWQADGLAPGDFVATVGFTSPDYVAVDLAAARSGLVSVPLQAGASLAQLVGILEETEPKVLAASASSLEGAVACALAAPSVQRLVVFDLRGPDASESAADERRGALADAEEQLARAGRAVVVETLADLAARGEALPEAPLFEPAEGEDPLALLIYTSGSTGAPKGAMYSQRLVSQLWGRTPVVPGMPNISLHYMPLSHSYGRAVLAGALSAGGTAHFTANSDLSTLFEDIALARPTFLALVPRVCEMLFQESQRGQDVAELRERVLGGRLLVAVCGSAPLSPEMRAFMEEVLGFPLLDGYGSTEALGVMRNGIIQRPPVIDYKLVDVPELGYRTTDKPYPRGELCIRSTSLISGYYKRPEITAEVFDAQGYYKTGDVMAEIAPDHLVYVDRSKNVLKLSQGEFVAVAKLEAAYGTSPYVKQIFVYGNSERSFLLAVVVPNAEVLGARDQEEAKPLIAASLQKIAKEAGLQSYEVPRDFLIETEPFTTQNGLLSEVGKLLRPKLKARYGEALEARYDEIAHGQADELRALRDGAGQRPVVETVVRAAVAISGSEGAEVGPEANFADLGGDSLSALSLANLLHDVFEVEVPVRIIIGPTASLAGIAKHIEAERAGASAPTAASVHGAGATRIRASELTLEKFLPEDLLAAAKGLPAADQVRTVLLTGANGWLGRFLALEQLERLARSGQDGGKLICLVRGKDAAAARRRIEETLGTDPALAARFAELAEGRLEVVPGDVGEPKFGLDDAAWDRLAEEVDVIVHPAALVNHVLPYHQLFGPNVVGTAEIIRLAITAKRKPVTYLSTVAVAAGVEPSSFEEDGDIRAVVPERPLGDGYANGYGNSKWAGEVLLREAHELVGLPVAVFRSDMILAHTRYTGQLNVPDQFTRLVLSLLATGIAPKSFYQQGAAGERQRAHYDGIPVDFTAEAITTLGAEPSWFDGGAGFRSFDVFNPHHDGVGLDEFVDWLIEAGHPISRIDDHKEWFARFETAVRGLPEAQRQHSLLPLLRAYSFPHPPVDGSVYPTGKFQGAVKAAQVGSDHDVPHLGKALIVKYADDLKALGLL
